From patent publication US20140275490A1 (Astellas, published 2014)

T1: human IL-23R (human, UniProt Q5VWK5 24-629)
T1 sequence: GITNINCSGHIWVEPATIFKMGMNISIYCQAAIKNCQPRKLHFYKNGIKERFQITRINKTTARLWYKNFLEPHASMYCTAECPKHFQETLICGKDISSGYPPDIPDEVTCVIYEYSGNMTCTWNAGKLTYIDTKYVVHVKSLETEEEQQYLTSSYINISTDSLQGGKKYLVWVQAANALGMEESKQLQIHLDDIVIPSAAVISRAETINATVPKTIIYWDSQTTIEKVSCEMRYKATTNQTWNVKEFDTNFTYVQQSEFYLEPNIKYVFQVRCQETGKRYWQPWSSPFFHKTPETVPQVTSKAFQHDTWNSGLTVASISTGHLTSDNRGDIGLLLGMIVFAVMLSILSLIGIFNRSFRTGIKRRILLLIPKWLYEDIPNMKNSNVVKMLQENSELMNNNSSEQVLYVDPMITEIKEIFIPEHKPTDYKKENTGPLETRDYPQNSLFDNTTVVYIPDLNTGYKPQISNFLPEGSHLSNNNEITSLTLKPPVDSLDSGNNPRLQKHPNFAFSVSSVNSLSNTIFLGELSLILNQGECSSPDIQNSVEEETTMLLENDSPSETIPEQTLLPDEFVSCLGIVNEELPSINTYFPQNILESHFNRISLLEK

T2: human IL-23R-mouse Fc fusion protein (human; mouse, UniProt Q5VWK5 24-353)
T2 construct: Expressed in FreeStyle 293 cells, purified; immobilized on the ELISA plate at 500 ng/mL; also called human IL-23R-Fc fusion protein; not shown: Fc region of mouse immunoglobulin (IgG2a) as encoded by the vector pFUSE-mIgG2A-Fc2 (InvivoGen); limits and any linker r
T2 sequence: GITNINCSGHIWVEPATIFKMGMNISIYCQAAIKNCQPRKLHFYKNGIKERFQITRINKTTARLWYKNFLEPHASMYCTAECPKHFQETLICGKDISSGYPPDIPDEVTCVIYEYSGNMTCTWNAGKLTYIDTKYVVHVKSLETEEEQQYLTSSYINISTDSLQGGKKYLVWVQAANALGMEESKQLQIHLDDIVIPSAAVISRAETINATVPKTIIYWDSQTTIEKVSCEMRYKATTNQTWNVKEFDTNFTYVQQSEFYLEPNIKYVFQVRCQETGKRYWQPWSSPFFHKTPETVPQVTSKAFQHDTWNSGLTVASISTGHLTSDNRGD


Columns and labels:
[1] = biological target: T3, monkey IL-23R-mouse Fc fusion protein (monkey; mouse); assay: antigen ELISA, monkey IL-23R-Fc immobilized, HRP anti-human IgG, chemiluminescence
T3 construct: extracellular domain; also called monkey IL-23R-Fc fusion protein
Description: (§1) The present inventors used an antigen ELISA to measure the antigen-specific binding activities of the fully human antibodies constructed in Example 6. A human or monkey IL-23R-Fc fusion protein was immobilized onto a Maxisorp 384-well plate (Nunc, Inc.) at a concentration of 500 ng/mL. A blocking agent (Blocking One; Nacalai Tesque, Inc.) was added thereto and allowed to stand at room temperature for 1 hour, followed by washing twice with a wash buffer [TPBS: 0.05% Tween-20-containing phosphate buffered saline (PBS)], and each of the purified antibody samples was suitably serially diluted and added thereto. Incubation was performed at room temperature for 1 hour, followed by washing four times with TPBS, and HRP-labeled anti-human IgG antibody (DAKO) which was 2000-fold diluted with dilution buffer was added as secondary antibody. Incubation was performed at room temperature for 1 hour, followed by washing four times with a washing buffer. A BM-chemiluminescence ELISA substrate (POD) (Roche Diagnostics) that is a reagent for detecting chemiluminescence was added thereto and the amount of chemiluminescence was measured with an EnVision counter (Perkin Elmer). Each of the antibodies was tested in duplicate, and the EC 50 was analyzed by curve fitting.

human IL-23R [2] = biological target: T1, human IL-23R; assay: cell-based or functional assay
human IL-23R [3] = biological target: T1, human IL-23R; assay: cell-based or functional assay; remark: listed apart in the source
[4] = biological target: T2, human IL-23R-mouse Fc fusion protein; assay: antigen ELISA, human IL-23R-Fc immobilized, HRP anti-human IgG, chemiluminescence
Description: as §1

[5] = biological target: T3, monkey IL-23R-mouse Fc fusion protein; assay: antigen ELISA, monkey IL-23R-Fc immobilized, HRP anti-mouse Ig, chemiluminescence
Description: (§2) The present inventors used an antigen ELISA to measure the antigen-specific binding activity of the antibody. The human or monkey IL-23R-Fc fusion protein was immobilized onto a Maxisorp 384-well plate (Nunc, Inc.) at a concentration of 500 ng/mL. A blocking agent (Blocking One; Nacalai Tesque, Inc.) was added thereto and allowed to stand at room temperature for 1 hour, followed by washing twice with a wash buffer [TPBS: a phosphate buffered saline (PBS) containing 0.05% Tween-20], and the purified antibody samples were suitably serially diluted and added thereto. Incubation was performed at room temperature for 1 hour, followed by washing four times with TPBS, and HRP-rabbit anti-mouse Ig antibody (DAKO) which was 2000-fold diluted with a dilution buffer was added. Incubation was performed at room temperature for 1 hour, followed by washing four times with a wash buffer. A BM-chemiluminescence ELISA substrate (POD) (Roche Diagnostics), which is a reagent for detecting chemical luminescence, was added, and the amount of chemiluminescence was measured with an EnVision counter (Perkin Elmer). Each antibody was tested in duplicate and the EC50 was analyzed by curve fitting. In this test, a fusion antibody obtained by replacing the Fc region of the known humanized anti-human IL-23R antibody hum20D7 (patent document 1) with the mouse Fc region (hereinafter referred to as hum20D7-mFc) was used as a comparative antibody. Also, the reason why the hum20D7 was fused with the mouse Fc region to prepare a fusion protein was to use anti-mouse Ig antibody as secondary antibody, and the mouse Fc region could be recognized by the anti-mouse Ig antibody, thereby rendering it possible to measure activity.

[6] = biological target: T2, human IL-23R-mouse Fc fusion protein; assay: antigen ELISA, human IL-23R-Fc immobilized, HRP anti-mouse Ig, chemiluminescence
Description: as §2

EC50 [1] [µg/mL] | IC50, inhibition of human IL-23-inducible Kit-225 cell proliferation (human IL-23R [2]) [µg/mL] | IC50, IL-23-stimulated STAT3 phosphorylation in CD4 lymphocytes of human whole blood (human IL-23R [3]) [µg/mL] | EC50 [4] [µg/mL] | EC50 [5] [µg/mL] | EC50 [6] [µg/mL] | Binder
0.0112 | 0.0035 | 0.0007 | 0.0195 |  |  | fully human antibody 25-3 (antibody, human IgG1, kappa, V domains shown, Human Ig gamma1 / human kappa constant regions; also called 25-3 (fully human); fully human 25-3 antibody) VH: QVQLQESGPGQVKPSQTLSLTCSVSGGSIDSGDHYWTWIRQHPGEVLEWIGYIYSSGHTYYSPSLKSRLTMSLDTSKNQFSLRLSSVTAADTAVYYCARVGDYEWFDTWGQGTLVTVSS VL: DIVMTQSPDSLAVSLGERATINCKSSQTILYPSNNMNYLGWYQQRAGQSPRLLIYWASTRESGVPDRFSGSGSGTDFTLTISSLQAEDVAVYYCQQYYSSLPTFGQGTKVEIKR
 |  |  |  | 0.028 | 0.021 | 25-3 (chimeric) (antibody, V domains shown) VH: QVQLQESGPGQVKPSQTLSLTCSVSGGSIDSGDHYWTWIRQHPGEVLEWIGYIYSSGHTYYSPSLKSRLTMSLDTSKNQFSLRLSSVTAADTAVYYCARVGDYEWFDTWGQGTLVTVSS VL: DIVMTQSPDSLAVSLGERATINCKSSQTILYPSNNMNYLGWYQQRAGQSPRLLIYWASTRESGVPDRFSGSGSGTDFTLTISSLQAEDVAVYYCQQYYSSLPTFGQGTKVEIKR
0.0331 | 0.0067 | 0.0082 | 0.0218 |  |  | fully human antibody 32-36 (antibody, human IgG1, kappa, V domains shown, Human Ig gamma1 / human kappa constant regions; also called 32-36 (fully human); fully human 32-36 antibody) VH: QVQMVQSGAEVKRPGASVKVSCKVSGYTLNELGIHWVRQAPGKGLEWMGGFDPEHGKIIYAQRFQGRLTMPEDTSTDTAYMELSSLTSEDTAVYYCATVAAPLDYWGQGTLVTVSS VL: not shown
0.0171 | 0.0014 | 0.00016 | 0.0131 |  |  | fully human antibody 32-28 (antibody, human IgG1, kappa, V domains shown, Human Ig gamma1 / human kappa constant regions; also called 32-28 (fully human); fully human 32-28 antibody) VH: QVHLVQSGTEVRKPGASVKVSCKVSGYTLNELAIHWVRQAPGKGLEWMGGFDPEHGEIIYAQRFQGRVTLPEDTSTDTAYLDLFNLRSEDTAVYFCATEAAPFDYWGQGTLVIVSS VL: DIQMTQSPSTLSASVGDRVTITCRASQSLSSWLAWYQQKPGKAPKLLIYKASSLESGVPSRFSGSGSGTDFTLTISSLQPDDFATYYCQQYDIYPRTFGQGTKVEIKR
 |  |  |  | 0.024 | 0.018 | 32-28 (chimeric) (antibody, V domains shown) VH: QVHLVQSGTEVRKPGASVKVSCKVSGYTLNELAIHWVRQAPGKGLEWMGGFDPEHGEIIYAQRFQGRVTLPEDTSTDTAYLDLFNLRSEDTAVYFCATEAAPFDYWGQGTLVIVSS VL: DIQMTQSPSTLSASVGDRVTITCRASQSLSSWLAWYQQKPGKAPKLLIYKASSLESGVPSRFSGSGSGTDFTLTISSLQPDDFATYYCQQYDIYPRTFGQGTKVEIKR
0.0148 | 0.0037 | 0.00051 | 0.0146 |  |  | fully human antibody 34-58 (antibody, human IgG1, kappa, V domains shown, Human Ig gamma1 / human kappa constant regions; also called 34-58 (fully human); fully human 34-58 antibody) VH: QVHLVQSGTEVRKPGASVKVSCKVSGYTLNELAIHWVRQAPGKGLEWMGGFDPEHGEIIYAQRFQGRITLPEDTSTDTAYMDLVNLRSEDTAVYFCTTEAAPFDYWGQGSLVIVSS VL: DIQMTQSPSTLSASVGDRVTITCRASQSLSNWLAWYQQKPGKAPKLLIYKASSLESGVPSRFSGSGSGTDFTLTISGLQPDDFATYYCQQYDIYPRTFGQGTKVEIKR
0.0076 | 0.0014 | 0.013 | 0.0118 |  |  | fully human antibody 30-15 (antibody, human IgG1, kappa, V domains shown, Human Ig gamma1 / human kappa constant regions; also called 30-15 (fully human); fully human 30-15 antibody) VH: QVQLVQSGAEVKKPGASMKVSCKVSGYTLNELSIHWVRQAPGKGLEWMGGFDPEHGETVYAQNFQDRVTLTEDTSTDTSYMGLNNLRSDDTAVYYCAAESYGDYEFWGQGTLVTVSS VL: DIQMTQSPSSVSASVGDRVTITCRASQGINNWLAWYQQKPGKAPKVLIYTASSLQSGVPSRFSGSGSGTDFTLTISSLQPEDFATYYCQQANSHPWTFGQGTKVEIKR
 |  |  |  | 0.069 | 0.019 | 30-16 (chimeric) (antibody, V domains shown) VH: QVQVVQSGAEVKKPGASVKVSCKVSGYTLIELAIHWVRQVPGKGLEWMGGFDPEHGETIYAQKFQGRVTMTEDTSTDTAYMELNNLRSEDTAVYYCAILEAGDLDCWGQGTLVTVSS VL: DIQMTQSPSSVSASVGDRVTITCRASQGISNWLAWYQQKPGKAPKVLIYTASSLQSGVPSRFSGSGSGTDFTLTVSGLQPEDFGTYYCQQANSFPFTFGPGTKVDIKR
0.0108 | 0.0023 | 0.0045 | 0.0165 |  |  | fully human antibody 30-16 (antibody, human IgG1, kappa, V domains shown, Human Ig gamma1 / human kappa constant regions; also called 30-16 (fully human); fully human 30-16 antibody) VH: QVQVVQSGAEVKKPGASVKVSCKVSGYTLIELAIHWVRQVPGKGLEWMGGFDPEHGETIYAQKFQGRVTMTEDTSTDTAYMELNNLRSEDTAVYYCAILEAGDLDCWGQGTLVTVSS VL: DIQMTQSPSSVSASVGDRVTITCRASQGISNWLAWYQQKPGKAPKVLIYTASSLQSGVPSRFSGSGSGTDFTLTVSGLQPEDFGTYYCQQANSFPFTFGPGTKVDIKR
 |  |  |  | 0.016 | 0.017 | 30-15 (chimeric) (antibody, V domains shown) VH: QVQLVQSGAEVKKPGASMKVSCKVSGYTLNELSIHWVRQAPGKGLEWMGGFDPEHGETVYAQNFQDRVTLTEDTSTDTSYMGLNNLRSDDTAVYYCAAESYGDYEFWGQGTLVTVSS VL: DIQMTQSPSSVSASVGDRVTITCRASQGINNWLAWYQQKPGKAPKVLIYTASSLQSGVPSRFSGSGSGTDFTLTISSLQPEDFATYYCQQANSHPWTFGQGTKVEIKR
0.0084 | 0.0033 |  | 0.0136 |  |  | fully human antibody 30-18 (antibody, human IgG1, kappa, V domains shown, Human Ig gamma1 / human kappa constant regions; also called 30-18 (fully human); fully human 30-18 antibody) VH: QVQLVQSGAEVKKPGASVKVSCKVSGYTLNELSIHWVRQAPGKGLEWMGGFDPEHSETLYAQNFQDRLTLTEDTSTETACMELNSLRSDDTAVYYCAAESYGDYEFWGQGTLVTVSS VL: DIQMTQSPSSVSASVGDRVTITCRASQDISSWLAWYQQKPGKAPKVLIYTASSLQSGVPSRFSGSGSGTDFTLTISSLQPEDFATYYCQQANSHPWTFGQGTKVEIKR
